Experimental data as given in paper PMC5147519.

Target: K18 WT tau (tau four-repeat domain), poly-histidine tag intact (human)
Test: SDS-PAGE and Western blot (SDS-resistant dimers and aggregates); soluble and pellet fractions of IPTG-induced E. coli, 15% Tris-glycine SDS-PAGE, blot with polyclonal anti-human tau A0024

stoichiometry N: 2
Substance: K18 WT tau (tau four-repeat domain), poly-histidine tag intact (domain or fragment)
